Laboratory results published in publication PMC12518824 (Nature Communications, 2025).

Experiments:
[1] = biological target: T1, Munc13-4 (full-length human, recombinant) (human, UniProt Q70J99 1-1090); test: pull-down
T1 sequence (looked up): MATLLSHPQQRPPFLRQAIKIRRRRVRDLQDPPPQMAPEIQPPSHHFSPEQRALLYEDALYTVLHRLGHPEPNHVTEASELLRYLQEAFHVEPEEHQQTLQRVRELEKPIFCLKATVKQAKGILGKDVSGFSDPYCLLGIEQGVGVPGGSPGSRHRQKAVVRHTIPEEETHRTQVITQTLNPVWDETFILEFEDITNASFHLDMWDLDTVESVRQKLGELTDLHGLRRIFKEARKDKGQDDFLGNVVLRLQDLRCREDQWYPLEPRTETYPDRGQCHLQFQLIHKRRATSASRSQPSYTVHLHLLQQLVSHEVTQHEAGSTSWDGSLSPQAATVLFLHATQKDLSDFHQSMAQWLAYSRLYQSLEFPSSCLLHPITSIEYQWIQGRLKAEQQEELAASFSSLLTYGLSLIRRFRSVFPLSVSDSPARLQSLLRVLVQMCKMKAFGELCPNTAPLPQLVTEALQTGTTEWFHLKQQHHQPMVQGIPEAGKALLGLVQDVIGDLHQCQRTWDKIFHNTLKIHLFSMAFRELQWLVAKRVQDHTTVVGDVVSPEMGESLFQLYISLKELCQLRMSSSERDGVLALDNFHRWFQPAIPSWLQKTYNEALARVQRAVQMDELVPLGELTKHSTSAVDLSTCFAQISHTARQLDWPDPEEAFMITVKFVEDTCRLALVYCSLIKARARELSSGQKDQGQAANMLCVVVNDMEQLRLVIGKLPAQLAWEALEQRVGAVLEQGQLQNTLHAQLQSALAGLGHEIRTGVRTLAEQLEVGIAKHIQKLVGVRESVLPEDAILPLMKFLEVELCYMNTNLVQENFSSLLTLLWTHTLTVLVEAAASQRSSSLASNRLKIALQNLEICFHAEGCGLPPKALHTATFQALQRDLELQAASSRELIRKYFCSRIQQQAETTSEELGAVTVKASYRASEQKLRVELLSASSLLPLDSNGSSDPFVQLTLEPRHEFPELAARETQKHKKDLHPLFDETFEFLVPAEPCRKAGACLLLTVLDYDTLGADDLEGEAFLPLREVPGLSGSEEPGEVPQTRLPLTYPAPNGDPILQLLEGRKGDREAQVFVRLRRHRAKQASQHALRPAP

[2] = biological target: T2, syntaxin-4 ΔTM (residues 1–275) (human, UniProt Q12846 1-275); test: FRET or BRET
T2 sequence (looked up): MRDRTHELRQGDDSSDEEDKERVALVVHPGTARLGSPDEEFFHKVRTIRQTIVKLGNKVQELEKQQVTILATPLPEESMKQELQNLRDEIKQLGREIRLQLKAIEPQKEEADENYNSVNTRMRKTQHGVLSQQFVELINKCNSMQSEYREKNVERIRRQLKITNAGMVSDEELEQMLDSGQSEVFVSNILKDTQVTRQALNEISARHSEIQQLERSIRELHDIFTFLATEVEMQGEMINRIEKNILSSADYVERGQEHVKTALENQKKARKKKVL

B1: GST-Rab27a (full-length) (natural protein, human, UniProt P51159 1-221, looked up)
chain: MSDGDYDYLIKFLALGDSGVGKTSVLYQYTDGKFNSKFITTVGIDFREKRVVYRASGPDGATGRGQRIHLQLWDTAGQERFRSLTTAFFRDAMGFLLLFDLTNEQSFLNVRNWISQLQMHAYCENPDIVLCGNKSDLEDQRVVKEEEAIALAEKYGIPYFETSAANGTNISQAIEMLLDLIMKRMERCVDKSWIPEGVVRSNGHASTDQLSEEKEKGACGC
B1: binds [1].

B2: VAMP-7 SNARE motif (residues 123–187, A131C) labeled with BODIPY FL (domain or fragment, human, UniProt P51809 123-187, looked up)
chain: LDKVMETQC(BODIPY FL)QVDELKGIMVRNIDLVAQRGERLELLIDKTENLVDSSVTFKTTSRNLARAMCMKNL
B2: binds [2].

B3: GST-VAMP-7 SNARE motif (residues 123–187) (domain or fragment, human, UniProt P51809 123-187, looked up)
chain: LDKVMETQAQVDELKGIMVRNIDLVAQRGERLELLIDKTENLVDSSVTFKTTSRNLARAMCMKNL
B3: binds [1].
